Measured values from the nanobody polyreactivity screen of Harvey et al. (2022).

Assay: yeast display, Sf9 membrane polyspecificity reagent, FACS + sequencing; frameworks hold sequencing errors
Outline: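 Nanobodies from a synthetic yeast display library (Saccharomyces cerevisiae BJ5465), induced 36–48 hours with galactose, were stained 1 hour at 4 °C with 10% biotinylated, detergent-solubilized Sf9 membrane reagent, enriched on streptavidin microbeads, then FACS-sorted. Anti-HA (expression) and streptavidin (reagent binding) fluorescence set low and high (top ~1%) gates. Polyreactivity labels come from the gate of origin. Genes were colony-PCR amplified, MiSeq 2 × 250 sequenced and filtered by CDR length.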

Row | Sequence | polyreactivity (PSR sort gate)
1 | QVQLVESGGGLVQAGGSLRLSCAASGSIFLVYAMGWYRQAPGKERELVAAIRWSGGSTYYADSVKGRFTISRDNAKNTVYLQMNSLKPEDTAVYYCNAGESYSVKGGPYDSDYWGQGTQVTVSS | low polyreactivity
2 | QVKLVESGGGLVQAGGSLRLSCAASGFTFNRYAMGWYRQAPGKERELVAAISWSGGSTYYADSVKGRFTISRDNAKNTVYLQMNSLKPEDTAVYYCAAATAYYRYRGGYDYWGQGTQVTVSS | high polyreactivity
3 | QVQLVESGGGLVQAGGSLRLSCAASGFTFEGYAMGWYRQAPGKERELVAAISSNGGRTYYADSVKGRFTISRDNAKNTVYLQMNSLKPEDTAVYYCNARRAYSGPDYDYYHGRRYDYWGQGTQVTVSS | low polyreactivity
4 | QVQLVESGGGLVQAGGSLRLSCAASGSNFLFNAMGWYRQAPGKERELVAAINRDDSTYYADSVKGRFTISRDNAKNTVYLQMNSLKPEDTAVYYCARDYRYTIPYDYWGQGTQVNVSS | low polyreactivity
5 | QVQLVESGGGLVQAGGSLRLICAASGFTFVRYTMGWYRQAPGKERELVAVIRRGGSTYYADSVKGRFTISRDNAKNTVYLQMNSLKPEDTAVYYCNALSALAVEDGYWGQGTQVTVSS | low polyreactivity
6 | QVQLVESGGGLVQAGGSLRLSCAASGRTIEHSAMGWYRQAPGKERELVAAINSSDGGTYYADSVKGRFTISRDNPKNTVYLQMNSLKPEDTAVYYCAAAEFGSVPGYEMDYWGHGTQVTVSS | low polyreactivity
7 | QVHLVESGGGLVPAGGSLRLSCAASGGIFIFYAMGWYRQAPGKERELVAAISNVSSTNYADSVKGRFTISRDNAKNTVYLQMNSLKPEDTAVYYCNAVGVPSEYYSWGQGTQVTVSS | low polyreactivity
8 | QVQLVESGGGLVQAGGSLRLSCAASGFIFRGYAMGWYRQAPGKERELVAAITSSGGDTYYADSVKGRFTISRDNAKNTVYLQMNSLKPEDSAVYYCAKRARRIGDVNMGSWGQGSQVTVSS | low polyreactivity
9 | QVQLVDSRGGLVQAGGSLRLSCAASGIIFFDYTMGWYSQAPGKERELVASITRGGSTYADSVKGRFTISRDNAMNSVYLQMNSLKPEDTAVYYCAATIVDYDAYGYWGQGTQVTVSS | low polyreactivity
10 | QVQLVESGGGLVQAGGSLRLSCAASGFIFVRNAMGWYRQAPGKEREFVAAITRSGGSTYYADSVKGRFTISRDNAKNTVYLQMNCLKPEDTAVYYCAVLYHSRDRYTYRDEDYWGQGTQVTVSS | low polyreactivity
11 | QVQLVESGGGLVQAGGSLRLSCAASGSIFNRYSMGWYRQEPGKERELVASIRGTGSTYYADSVKGRFTISRDNAKNTVYLQMNSLKPEDTAVDYCAARPGYLYSKYNYWGQGTQVTVSS | high polyreactivity
12 | QVQLVESGGGLVQAGGSLRLTCAASGRTFYWNVMGWYRQAPGKERELVAITTSGGSTYYADAVKGRFTISRDNAKNTVYLQMNSLKPEDTAVYYCAAQWRSYYDQYGYDYWGQGTQVTVSS | low polyreactivity
13 | QVQLVESGGGLVQAGGSLRLSCAASGLIFVPYAMGWYIQAPGKERELVAAISRSGGSTYYADSVKGRFTISRDNAKNTVYLQMNSLKPEDTAVYYFATLNYYGEVEYWGQGTQVTVSS | high polyreactivity
14 | QVQHVESGAGLVQAGGSLRLTCAASARTFKPYARGWYRQPPGKERELLAVISFSGGSTYYADSVKGRFTISRDNSKNTFYLQMNSLKPEDTAVYYCNAEGVTRQGGYDYWGQGTQVTVSS | high polyreactivity
15 | QVQLVESGGGLVQAGGSLRLSCAASGFTLYVYDMGWYRQAHGKERELVAAINGGGSTNYADSVKGRFTISRDNAKNTVYLQMNSLKPEDTAVYYCAAEDAYGRDVYYGSDYWGQGTLVTVSS | low polyreactivity
16 | QVQLVESGGGLVQAGGSLRLSCAASGRIFTNNAMGWYRQAPGKERELVAAISRSGGRTYYADSVKGRFTISRDNAKNTVYLQMNSLKPEDTAVYYCAAVHLYYGYNSPFTMDYWGQGTQVTVSS | high polyreactivity
17 | QVQLVESGGGLVQAGGSLRLSCAASVSTFVVNAMGWYRQAPGKERELVAAISRSDAITYYADSVKGRFTISRDNAKNTVYLQMNSLKPEDTAVYYCAAELSYRGYPYDYWGQGTQVTVSS | high polyreactivity
18 | QVQLVESGGGLVQAGGSLRLSCAASGITFGRNTMGWYRQAPGKERELVAAITYRSGRTYYADSVKGRFTISRDTAKNTVYLQMNILKPEDTAVYYCNTVSPYYDYDYWGQGTQVTVSS | high polyreactivity
19 | QVQLVQSVGGLVQAGGSLRLSCAATGRIFFSYAMGWYRQAPGKERELVAAISWDGGSTYYADSVKGRFTISRDNAKNTDYLQMTSLKPEDTAVSYCNADTHFPPSSSSYSPSLLDYWGQGTQVTVSS | low polyreactivity
20 | QVQLVESGGGLVQAGGSLRLSCAASGSTFFLYAMGWYRQAPGKERELVASITDGGSTNYADSVKGRFTISRDNAKNTVYLQMNSLKPEDTAVYYCNALARSSRYDYWGQGTQVTVSS | low polyreactivity
21 | QVQLVESGGGLVQAGGSLRLSWAASGRILSANAMGWYRQAPGKERELVAAITYSGDNTYYADSVKGRFTISRDNAKNTVDVQMNSLKPEDTAVYYCAAVRYYAYLSSWRYDYWGQGTQVTVSS | low polyreactivity
22 | QVQLVESVGGLVQAGGSLRLSCAASGSTLSAYVMGWYRQAPGKERELVAAITRGGNTYYADSVKGRFTISRDNAKNTVYLQMNSLKPEDTAVYYCAARTYVSYCYYTLNYWGQGTQVTVSS | high polyreactivity

Row | Sequence | polyreactivity (PSR sort gate)
23 | QVQLVESGGRLVQAGRSLRLSCAASGRTLKQYVMGWYRQAPGKERELVAAISRRGSSTYYADSVKGRFTISRDNAKNTVYLQMYSLKPEDTAVYYCAAPVYTTRHITAAYEEYGYWGQGTQVNVSS | high polyreactivity
24 | QVQLVESGVGLVQAGGSLRLSCAACGSTFPINAMGWYRQAPGKESELVAAISWSAGSTHYADSVKGRFTISRDNAKNTVYLQMNSLKPEDTAVYYCAAETWGLGDYWGLGTQVTVSS | low polyreactivity
25 | QVQLVESGGGLVQAGGSLRLSCAASGSTFVRNAMGWYRQAPGKERELVAAISNVGSTYYADSVKGRFTISRDNAKNTVYLQMNSLKPEDTAVYYGTKQLWYHKFNYWGQGTQVTVSS | low polyreactivity
26 | QVQLVESGGGLVQAGGSLRLSCAASGIIFAANAMAWYRQAPGKERELVAAISKNGGITYYADSVKGRFTISRDNAKNTVYLQMNSLIPEDTAVYDCSARWRQTRRYYYWGQGTKVTVSS | high polyreactivity
27 | QVQLVESGGGLVQAGGSLRLSCAASGSIFRSNAMGWYRQAPGKERELVAAISSSGGSTYYADSVKGRFTISRDNAKNTVYLQMNSLKPEDTAVYYCNTSVDRGLGYWGQGTQVTVSS | low polyreactivity
28 | QVQLVESGGGLVQAGGSLRLSCAASGSIFLFYTMGWYRQAPGKERELVASSSGGGTHYADSVKGRFTISRDNAKNTVYLQMNSLKPEDTAVYYCATPNKNGQNLGGVWEAYDYWGQGTQVTVSS | low polyreactivity
29 | QVKLVESGGGLVQAGGSLRLSCAASGFIFLRYGMGWYRQAPGKERELVASIDSTGGSTYADSVKGRFTISRDNAKNTVYLKMNSLKPVDTAVYFCAAAFYIVSERDYCGQGTQVTVSS | low polyreactivity
30 | QFQLVESGGGLVQAGGSLRLSCAASGFTITFYAKGWYRQAPGKERELVAAIRTSDGRTYYADSVKGRFTISRDNAKNTVYLQMNSLKPEDTAVYYCAAQVYRPRARYYEYDYWGQGTQVTVSS | high polyreactivity
31 | QVQLVESGGGLVQAGGSLRLSCAPSGSIYTPYAMGWYRPAPGKLRELVADISRSGSTNYADSVKGRFTISLDNAKKTVYLQMNSLKPEDTAVYYCNADFWWHWGTSYDYWGQGTQVTVSS | high polyreactivity
32 | QVHLVESGGGLVQAGGSLRLSCAASGSIFSYYAMGWYRQAPGKERELVAAISQSGGSTYYSDSVKGRFTISRDNAKNTVYLQMNSLKPEDTAVYYCNSGRGTFKRYTALQYWGQGTQVTVSS | low polyreactivity
33 | QVQLVESGGGLVQAGGSLRLSCAASGGTFDDYAMGWYRQAPGKERELVAAISSSGGSTYYADSVKGRITISRDNAKNTVYLEMNSLKPDDTAVYYCAVDAFWRHWYYPYESHHDYWGQGTQVTVSS | low polyreactivity
34 | QVQLVESGGGLVQAGGSLRLSCAASGRIFGYYAMGWYRQAPGKERELVAAIRRSGGSTYADSVKGRFTISRDNAKNTVYLQMNSLKPEDTAVYYCAAGHYWFTKGYHTLYDMDYWGQGTQVTVSS | high polyreactivity
35 | QVQLVESGGGLVQAGGSLRLSCAASGSTFRIYAMGWYRQAPGKERELVAAISSGGRTNYADSVKGRFTISRDNAKNTVYLQMNSLKPEDTAVYYCNAVFLPTYHFDYWGQGTQVTVSS | high polyreactivity
36 | QVQLVESGGGLVQAGGTLRLSCAASGRIFVYYTMGWYRQAPGKERELVAAITCSGGSTYYADTVKGRFTISRDNEKNPVYLQMNSLKPEDTAVYYCAADGYADYYGWGYWTEYDYWGQGTQVTVSS | low polyreactivity
37 | QVQLVESGGGFVQAGGSLRLSCAASGLTFWPYVMGWYRQAPGKERELVAAIDDTGITYYADSVKGRFTISRDNAKNTVYLQMNSLKPEDTAVYYCATDWDYYFPWIYPSDAGPEDGYWGQGTQVTVSS | low polyreactivity
38 | QVHLVESGGCLVQAGGSLRLSGAASGGNFSTYAMGWYRQAPGKERELVSSITERGGSTYYADSVKGRFTISRDNAKNTFDLQMNSLKPEDTAVYYCAADWDASWWLVPTSSYDYWGEGTQVTVSS | low polyreactivity
39 | QVQLVESGGGLVQAGGSLRISCAASGRISVFNVMGWYIQAPGKERELVAAITSGGSTKYADSVKGRFTISRDNAKNTVYLQMNSLKPEDTAVYYCAALYQFHGKIWDGDYWGQGTQVTVSS | low polyreactivity
40 | QVQRVESGGGLVQAGGSLRLSCAASGRIFGLNAMGWYRQAPGKERELVAAIDRSGASTYYADSVKGRFTISRDNAKNTVYLQMNSLKPEDSAVYYCAARIRTSDRRYYLGQGTQVTVSS | high polyreactivity
41 | QVQLVESGGGLVQAGGSLRLSCAASGRTFAWYAMGWYRQAPGKERELVAAISSGGSTYYADSVKGRFTISRDNAKNTVYLQMNSLKPEDTAVYYCAAEWHYIYAYDSWGQGTQVTVSS | low polyreactivity
42 | QVQLVESGGGLVQAGGSLRLSCAASGFTIWRYAMGWYRQAPGKERELVAAISRGGSTNYADSVKGRFTISRDNAKKTVYLQMNSLKPEDTAGYYCAASVQYRRLKKFYYWGQGTQVTVSS | high polyreactivity
43 | QVQLVESGGGLVQAGGSLRLSCAASGRIFRLYAMGWYRQAPGKERELVATITDVGSTYYADSVKGRFTISRDNAKNTVYLQMNSLKPEDTAVYYCAAESYYTSYWKYYYWGQGTQVTVSS | high polyreactivity
